Laboratory results: patent US20220226495A1
Like-named read-outs stand apart in the source and are kept apart here.

B1: V1/V2 directed Ab “a” (antibody, V domains shown)
VH: QVHLTQSGPEVRKPGTSVKVSCKAPGNTLKTYDLHWVRSVPGQGLQWMGWISHEGDKKVIVERFKAKVTIDWDRSTNTAYLQLSGLTSGDTAVYYCAKGSKHRLRDYALYDDDGALNWAVDVDYLSNLEFWGQGTAVTVSS
VL: DFVLTQSPHSLSVTPGESASISCKSSHSLIHGDRNNYLAWYVQKPGRSPQLLIYLASSRASGVPDRFSGSGSDKDFTLKISRVETEDVGTYYCMQGRESPWTFGQGTKVDIK
B2: V1/V2 directed Ab “b” (antibody, V domains shown)
VH: QVQLVESGGGVVQPGTSLRLSCAASQFRFDGYGMHWVRQAPGKGLEWVASISHDGIKKYHAEKVWGRFTISRDNSKNTLYLQMNSLRPEDTALYYCAKDLREDECEEWWSDYYDFGKQLPCAKSRGGLVGIADNWGQGTMVTVSS
VL: QSVLTQPPSVSAAPGQKVTISCSGNTSNIGNNFVSWYQQRPGRAPQLLIYETDKRPSGIPDRFSASKSGTSGTLAITGLQTGDEADYYCATWAASLSSARVFGTGTKVIVL
B3: Binding Protein 2 (protein)
heavy 1: RAHLVQSGTAMKKPGASVRVSCQTSGYTFTAHILFWFRQAPGRGLEWVGWIKPQYGAVNFGGGFRDRVTLTRDVYREIAYMDIRGLKPDDTAVYYCARDRSYGDSSWALDAWGQGTTVVVSAASTKGPSVFPLAPSSKSTSGGTAALGCLVKDYFPEPVTVSWNSGALTSGVHTFPAVLQSSGLYSLSSVVTVPSSSLGTQTYICNVNHKPSNTKVDKKVEPKSCDKTHTCPPCPAPELLGGPSVFLFPPKPKDTLMISRTPEVTCVVVDVSHEDPEVKFNWYVDGVEVHNAKTKPREEQYNSTYRVVSVLTVLHQDWLNGKEYKCKVSNKALPAPIEKTISKAKGQPREPQVCTLPPSRDELTKNQVSLSCAVKGFYPSDIAVEWESNGQPENNYKTTPPVLDSDGSFFLVSKLTVDKSRWQQGNVFSCSVLHEALHSHYTQKSLSLSPG
light 1: YIHVTQSPSSLSVSIGDRVTINCQTSQGVGSDLHWYQHKPGRAPKLLIHHTSSVEDGVPSRFSGSGFHTSFNLTISDLQADDIATYYCQVLQFFGRGSRLHIKRTVAAPSVFIFPPSDEQLKSGTASVVCLLNNFYPREAKVQWKVDNALQSGNSQESVTEQDSKDSTYSLSSTLTLSKADYEKHKVYACEVTHQGLSSPVTKSFNRGEC
heavy 2: EVRLVESGGGLVKPGGSLRLSCSASGFDFDNAWMTWVRQPPGKGLEWVGRITGPGEGWSVDYAESVKGRFTISRDNTKNTLYLEMNNVRTEDTGYYFCARTGKYYDFWSGYPPGEEYFQDWGQGTLVIVSSDKTHTQVHLTQSGPEVRKPGTSVKVSCKAPGNTLKTYDLHWVRSVPGQGLQWMGWISHEGDKKVIVERFKAKVTIDWDRSTNTAYLQLSGLTSGDTAVYYCAKGSKHRLRDYALYDDDGALNWAVDVDYLSNLEFWGQGTAVTVSSDKTHTASTKGPSVFPLAPSSKSTSGGTAALGCLVKDYFPEPVTVSWNSGALTSGVHTFPAVLQSSGLYSLSSVVTVPSSSLGTQTYICNVNHKPSNTKVDKKVEPKSCDKTHTCPPCPAPELLGGPSVFLFPPKPKDTLMISRTPEVTCVVVDVSHEDPEVKFNWYVDGVEVHNAKTKPREEQYNSTYRVVSVLTVLHQDWLNGKEYKCKVSNKALPAPIEKTISKAKGQPREPQVYTLPPCRDELTKNQVSLWCLVKGFYPSDIAVEWESNGQPENNYKTTPPVLDSDGSFFLYSKLTVDKSRWQQGNVFSCSVLHEALHSHYTQKSLSLSPG
light 2: DFVLTQSPHSLSVTPGESASISCKSSHSLIHGDRNNYLAWYVQKPGRSPQLLIYLASSRASGVPDRFSGSGSDKDFTLKISRVETEDVGTYYCMQGRESPWTFGQGTKVDIKDKTHTASELTQDPAVSVALKQTVTITCRGDSLRSHYASWYQKKPGQAPVLLFYGKNNRPSGIPDRFSGSASGNRASLTITGAQAEDEADYYCSSRDKSGSRLSVFGGGTKLTVLDKTHTRTVAAPSVFIFPPSDEQLKSGTASVVCLLNNFYPREAKVQWKVDNALQSGNSQESVTEQDSKDSTYSLSSTLTLSKADYEKHKVYACEVTHQGLSSPVTKSFNRGEC
B4: Binding Protein 3 (protein)
heavy 1: B3 heavy 1
light 1: B3 light 1
heavy 2: QVHLTQSGPEVRKPGTSVKVSCKAPGNTLKTYDLHWVRSVPGQGLQWMGWISHEGDKKVIVERFKAKVTIDWDRSTNTAYLQLSGLTSGDTAVYYCAKGSKHRLRDYALYDDDGALNWAVDVDYLSNLEFWGQGTAVTVSSDKTHTEVRLVESGGGLVKPGGSLRLSCSASGFDFDNAWMTWVRQPPGKGLEWVGRITGPGEGWSVDYAESVKGRFTISRDNTKNTLYLEMNNVRTEDTGYYFCARTGKYYDFWSGYPPGEEYFQDWGQGTLVIVSSDKTHTASTKGPSVFPLAPSSKSTSGGTAALGCLVKDYFPEPVTVSWNSGALTSGVHTFPAVLQSSGLYSLSSVVTVPSSSLGTQTYICNVNHKPSNTKVDKKVEPKSCDKTHTCPPCPAPELLGGPSVFLFPPKPKDTLMISRTPEVTCVVVDVSHEDPEVKFNWYVDGVEVHNAKTKPREEQYNSTYRVVSVLTVLHQDWLNGKEYKCKVSNKALPAPIEKTISKAKGQPREPQVYTLPPCRDELTKNQVSLWCLVKGFYPSDIAVEWESNGQPENNYKTTPPVLDSDGSFFLYSKLTVDKSRWQQGNVFSCSVLHEALHSHYTQKSLSLSPG
light 2: ASELTQDPAVSVALKQTVTITCRGDSLRSHYASWYQKKPGQAPVLLFYGKNNRPSGIPDRFSGSASGNRASLTITGAQAEDEADYYCSSRDKSGSRLSVFGGGTKLTVLDKTHTDFVLTQSPHSLSVTPGESASISCKSSHSLIHGDRNNYLAWYVQKPGRSPQLLIYLASSRASGVPDRFSGSGSDKDFTLKISRVETEDVGTYYCMQGRESPWTFGQGTKVDIKDKTHTRTVAAPSVFIFPPSDEQLKSGTASVVCLLNNFYPREAKVQWKVDNALQSGNSQESVTEQDSKDSTYSLSSTLTLSKADYEKHKVYACEVTHQGLSSPVTKSFNRGEC

Key:
[1] = target: HIV-1 Env of 20 pseudotyped viruses representing 10 different HIV-1 clades; assay: cell-based or functional assay
[2] = target: HIV-1 Env of 20 pseudotyped viruses representing 10 different HIV-1 clades; assay: cell-based or functional assay; remark: listed apart in the source
[3] = target: T1, MPER binding peptide (Acetyl-[…]-Ttds-Lys-(Biotin)-NH2) (HIV-1)
[4] = target: T1, MPER binding peptide …; remark: listed apart in the source

| Binder | % VS Neutralized IC80 <1 µg/mL [1] [%] | % VS Neutralized IC80 <50 µg/mL [1] [%] | Geometric Mean [1] [µg/mL] | Median IC80 [1] [µg/mL] | Total VS Neutralized IC80 <1 µg/mL (viruses of 20) [1] | Total VS Neutralized IC80 <50 µg/mL (viruses of 20) [1] | % VS Neutralized IC80 <1 µg/mL [2] [%] | % VS Neutralized IC80 <50 µg/mL [2] [%] | Geometric Mean [2] [µg/mL] | Median IC80 [2] [µg/mL] | Total VS Neutralized IC80 <1 µg/mL (viruses of 20) [2] | Total VS Neutralized IC80 <50 µg/mL (viruses of 20) [2] | Ka [3] [M⁻¹] | Kd [3] [nM] | koff [3] [s⁻¹] | kon [3] [M⁻¹ s⁻¹] | fold higher affinity than the MPER antibody [4] [fold] |
| --- | --- | --- | --- | --- | --- | --- | --- | --- | --- | --- | --- | --- | --- | --- | --- | --- | --- |
| B1 | 45 | 55 | 0.094 | 0.06 | 9 | 11 | – | – | – | – | – | – | – | – | – | – | – |
| B2 | – | – | – | – | – | – | 45 | 45 | 0.039 | 0.051 | 9 | 9 | – | – | – | – | – |
| B3 | 65 | 90 | 0.222 | 0.375 | 13 | 18 | – | – | – | – | – | – | 1.65e+08 | 6.05 | 0.000697 | 115000 | 3.1 |
| B4 | 60 | 90 | 0.287 | 0.469 | 12 | 18 | – | – | – | – | – | – | 6e+07 | 16.7 | 0.000779 | 46700 | – |
